assay: yeast display, Sf9 membrane polyspecificity reagent, FACS + sequencing; frameworks hold sequencing errors
Outline: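 After 36–48 hours of galactose induction, yeast (Saccharomyces cerevisiae BJ5465) displaying a synthetic nanobody library were stained at 4 °C for 1 hour with 10% biotinylated, detergent-solubilized Sf9 membrane reagent. Streptavidin microbeads enriched the stained cells before FACS sorting into low and high (top ~1%) gates on anti-HA and streptavidin fluorescence. Each clone's polyreactivity label reflects its gate of origin.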

Sequence	polyreactivity (PSR sort gate)
QVQLVESGGGLVQAGGSLRLSCAASGFTFYSYPLGWYRQAPGKERELVAAITRGGRTYYADSVKGRFTISRDNAKTTVYLQMNSLKPDDSAVSYCNATAGHGYYYWGQGTQVTVSS	high polyreactivity
QVQLVESGGGLVQAGGSLRLSCAASGFTFYTNAMGWYRQAPGKERELVAGINSGSSTYYADSVKGRFTISRDNAKNNVYLQMNSLKPEDTAVYYCAARRSRYIHRGFGYWGQGTQVTVSS	high polyreactivity
QVQLVESGGGLVQAGGSLRLSCAASGFTFYTNTMGWYRQAPGKERELVAAISSGGSTYYADSVKGRFTISRDNAKNTVYLQMNRLKPEDTAVYYCNAYDYHDVADDYWGQGTQVTVSS	low polyreactivity
QVQLVESGGGLVQAGGSLRLSCAASGFTFYTNVMAWYRQAPGKERELVAAINSGGSTNYADSVKGRFTISRDNAKNTVFLQMNSLKPEDTAVYYCNKRGTEIGYDYWGQGTQVTVLS	low polyreactivity
QVQLVESGGGLVQAGGSLRLSCAASGFTFYTNVMGWYIQAPGKERELVAAINSGGSTNYADSVKGRFTISRDNAKNTVYLQMNSLKPEDTAVYYCNKRGTEIGYDYWGQGTQVTVLS	low polyreactivity
QVQLVESGGGLVQAGGSLRLSCAASGFTFYTYAMGLYRQAPGKERELVAAITSSGGSTYYADSVKGRFTISRDNAKNTVYLQMKSLKPEDTAVYYCNAVSYYLGDDYWGQGTQVTVSS	high polyreactivity
QVQLVESGGGLVQAGGSLRLSCAASGFTFYTYAMGWYRQAPGKERELVAAISGSGSRTYYADSVKGRFTISRDNAKNTVYLQMNSLKPEDTAVYYCNAGYGSGSLHREFNYWGQGTQVTVSS	low polyreactivity
QVQLVESGGGLVQAGGSLRLSCAASGFTFYTYAMGWYRQAPGKERELVAAITGSGGRTYYADSVKGRFTISRDNAKTTVYLQMNSLKPEDTAVYYCAALYVYRPRTPYGYWGQGTQVTVSS	high polyreactivity
QVQLVESGGGLVQAGGSLRLSCAASGFTFYTYAMGWYRQAPGKERELVATITGRTGSTYYADSVKGRFTISRDNAKNTVYLQMNSLKPEDTAVYYCAADWGKLHVTWFRVNYWGQGTQVTVSS	low polyreactivity
QVQLVESGGGLVQAGGSLRLSCAASGFTFYTYDMGWYRQAPGKERALVAAITSGVSTNYADSVKGRFTISRDNAKNTVYLQMNSLKPEDTAVYYCNKDVRPAYRWYDYWGQDTQVTVSS	low polyreactivity
QVQLVESGGGLVQAGGSLRLSCAASGFTFYTYFMGWYRPAPGKERELVAAITSGVSTNYADSVKGRFTISRDNAKNTVYLQMNSLKPEDTAVYYCNKDVRPAYRWYDYWGQDTQVTVSS	low polyreactivity
QVQLVESGGGLVQAGGSLRLSCAASGFTFYTYTMGWYRQAPGKERELVAVISRSGGSTYYADSVKGRFTISRDNAKNTVYLQMNSLKPEDTAVYYCNAGYWRFIDSYDYWGQGTQVTVSS	high polyreactivity
QVQLVESGGGLVQAGGSLRLSCAASGFTFYWTAMGWYRQAPGKERELVAAINGGDSTNYADSVKGRFTISRDNAKNTVYLQMNSLKPEDTAVYYCAKYYYTSIVGYDSWGQGTQVTVSS	low polyreactivity
QVQLVESGGGLVQAGGSLRLSCAASGFTFYWYDMGWYRQAPGKERELVSTISTGGGTNYADSVKGRFTISRDNAKNTVYLQMNSLKPEDNAVYYCAADGSAGYQWGYDFEGDYWGQGTEVTVSS	high polyreactivity
QVQLVESGGGLVQAGGSLRLSCAASGFTFYWYTMAWNRQAPGKERELVAAISRRGGSTSYADSVKGRFTISRDNAKNTVYLQMNSLKPDDTAVYYCAKTPGWTDYDYWGQGTQVTVSS	high polyreactivity
QVQLVESGGGLVQAGGSLRLSCAASGFTFYWYTMGWYRPAPGKERELVATISGSGGRTYYADSVKGRFTISRDNAKNTVYLQMNSLKPEDSAVYYCNAGRPYKYGYWGQGTQVTVSS	high polyreactivity
QVQLVESGGGLVQAGGSLRLSCAASGFTFYYNAMGCYRQAPGKERELVAIRFRGGNTYYADSVKGRFTISRDNAKNTVYLQMNSLKPEDTAVYYCNADDRGSTYVDFDYWGQGTQVTVSS	low polyreactivity
QVQLVESGGGLVQAGGSLRLSCAASGFTFYYNAMGWYRQAPGKERELVASITRSGGRTYYADSVKGRFTISRDNAKNTVYLQMNSLKPEDTAVYYCARRYPGGYYWGQGTQVTVSS	high polyreactivity
QVQLVESGGGLVQAGGSLRLSCAASGFTFYYYAMGWYRQAPGKERELVAAISKSGGSTYYADSVKGRFTISRDNAKNTVYLQMNSLKPEDTAVYYCARDKGSSGKGHGYWGQGTQVTVSS	high polyreactivity
QVQLVESGGGLVQAGGSLRLSCAASGFTFYYYAMGWYRQAPGKERELVAAISSGGRTNYADSVKGRFTISRDNAKNTVYLQMNSLKPEDTAVYYCAAQYRNYFPYRVVRQGVGYWGQGTQVTVSS	high polyreactivity
QVQLVESGGGLVQAGGSLRLSCAASGFTFYYYAMGWYRQAPGKERELVASISSRGGSTYYADSVKGRFTISRDNAKNTVYLQMNSLKPEDTAVYYCAARTRRYKFDYWGQGTQVTVSS	high polyreactivity
QVQLVESGGGLVQAGGSLRLSCAASGFTFYYYTLGWYRQAPGKVRELVARITTRGTSTYYADSVKGRFRISRDTPKNTVYLPMNSLKPEDTAVYYCAAQVGRGYEVYAVYKYGYWGQGTQVTVSS	high polyreactivity

Sequence	polyreactivity (PSR sort gate)
QVQLVESGGGLVQAGGSLRLSCAASGFTFYYYTMGWYRQAPGKERELVAAITISGGSTYYADSVKGRFTISRDNAKNTVYLQMNSLKPEDSAVYYCNADYQWYLGGYDFWGQGTQVTVSS	high polyreactivity
QVQLVESGGGLVQAGGSLRLSCAASGFTIARNTMGWYRPAPGKERELVAAISGGGSTNYADSVKGRFTISRDNAKYTVYLQMNSLKPEDTAVYYCNADSNSDNNDYDYWGQGTQVTVSS	low polyreactivity
QVQLVESGGGLVQAGGSLRLSCAASGFTIDAYAMGWYRQAPGKERELVAAISDGGNTYYADSVKGRFTISRDNAKNTVYLQMNSLKPEDTAVYYCNVDWYSYWYYTYEKSSEWAMEYWGQGTQVTVSS	low polyreactivity
QVQLVESGGGLVQAGGSLRLSCAASGFTIFSYAMGWYRQAPGKERELVAAISRRGGSTYYADSVKGRFTISRDNAKNTVYLQMNSLKPEDTAVYYCAAGPRWHTNGWAYDYWGQGTQVTVSS	high polyreactivity
QVQLVESGGGLVQAGGSLRLSCAASGFTIGANNMGWYRQAPGKERELLAAISASGGSTYYADSVKGRFTISRDNAKNTVYLQMNSLKPEDTAVYYCAARRYPGRTATYYSWGQGTQVTVSS	high polyreactivity
QVQLVESGGGLVQAGGSLRLSCAASGFTIKYYAMGWYRQAPGKEREFVAAISSSGGRTYYADSVKVRFTISRDYAKNTVYLQMNSLKPEDTAVYYCAAAWGTYGYHYDYLGQGTQVTVSS	low polyreactivity
QVQLVESGGGLVQAGGSLRLSCAASGFTIPTYAMVWYRQAPGKERELVAAITRGGSTYYADSVKGRFTISRDNAKYTVYLQMNSLKPEDTAVYYCAADDPWYEEDYWGQGTQVTVSS	low polyreactivity
QVQLVESGGGLVQAGGSLRLSCAASGFTISPYAMGWYRQAPGKERELVAAITRRSGSTYDADSVKGRFTISRDNAKNTVYLQMNSLKPEDTAVYYCNAKFYTAVYSYSLFNYWGQGTQVTVSS	high polyreactivity
QVQLVESGGGLVQAGGSLRLSCAASGFTISRYNMGWYRQAPGKEREMVAAISGSGGSTYYADSVKGRFTISRDNAKNTVYLQMNSLKPEDTAVYYCNAVRNWYYTPWEMNYWGQGTQVTVSS	high polyreactivity
QVQLVESGGGLVQAGGSLRLSCAASGFTITAYAMGWYRQAPGKERELVAAISYSGGRTYYADSVKGRFTISRDIAKNTVYLQMNSLKTEDTAVYYCYAVLAHYQSLVYWGQGSQVTVSS	high polyreactivity
QVQLVESGGGLVQAGGSLRLSCAASGFTITIYAMGWYRQAPGKERELVATISGRAGRTYYADSVKGRFTISRDNAKNTVYLQMNSLKPEDTAVYYCNAGQWRYPGLYYYWGQGTQVTVSS	high polyreactivity
QVQLVESGGGLVQAGGSLRLSCAASGFTITRYAMGWYRQAPGKERELVARITGRGGGTFYADSVKGRFTISRDNAKNTVYLQMNSLKPEDTAVYYCNTDYGSSYNYWGQGTQVTVSS	high polyreactivity
QVQLVESGGGLVQAGGSLRLSCAASGFTIVPYAMGWYRQAPGKERELVAAITSGGSTYYADSVKGRFTISRDNAKNTVYLQMNSLKPEDTAVYYCNRGRYRRRYTYSQYDYWGQGTQVTVSS	high polyreactivity
QVQLVESGGGLVQAGGSLRLSCAASGFTIYGYAMGGDRQAPGPERELVAAITSRGGSTYYADSVKGRFTISRDNAKNTVYLQMNSLKPEDTAVYYCSKASGIYLGSRYYDVPMDYWGQGTQVTVSS	high polyreactivity
QVQLVESGGGLVQAGGSLRLSCAASGFTIYGYVMGWYRQAPGKVRELVAAISYSAGRTYYADSVKGRFTISRDNAKNTVYLQMNSLKPEDTAVYYCNAPSVGAAFDYCGQGTQVTVSS	high polyreactivity
QVQLVESGGGLVQAGGSLRLSCAASGFTIYPYAMGWYRQAPGKERELVAAISQRGGRTSYADSVKGRFTISRDNAKNTVYLQMNSLKPEDTAVYYCAARFWATEGYWGQGTQVTVSS	high polyreactivity
QVQLVESGGGLVQAGGSLRLSCAASGFTIYRYAMGWYRQAPGKERELVAAITSRGGSTYYADSVKGRFTISRDNAKNTVYLQMNSLKPEDTAVYYCAAAGYYPAYDYWGQGTQVTVSS	high polyreactivity
QVQLVESGGGLVQAGGSLRLSCAASGFTLAFYGMGRSRQAPGKERELVAAISRSGGSTYYADSVKGRFTISRDNAKNTVYLQMNSLKPEDTAVYYCAAAFRAGDVYGYYWGQGTQVTVSS	high polyreactivity
QVQLVESGGGLVQAGGSLRLSCAASGFTLARYAMGWYRQAPGKEREFVAAITNGGRTNYADSVKGRFTISRDNAKNTVYLQMNSLKPEDTAVYYCAARYRFGGIRRYNYWGQGTQVTVSS	high polyreactivity
QVQLVESGGGLVQAGGSLRLSCAASGFTLAWNAMGWYRQAPGKERELVATISRSGSSTSYADSVKGRFTISRDTAKNTVYLQMNSLKPEDTAVYYCAADRYTVRMDYWGQGTQVTVSS	high polyreactivity
QVQLVESGGGLVQAGGSLRLSCAASGFTLDKYAMGSNRQAPGTERELVAAINWSGGSTYYADSVKGRFTISRDNAKNTVYLQMNSLKPEDTAVYYCNAQAYRRRRYYYWGQGTQVTVSS	high polyreactivity
